Target: I-A^q molecule of MHC (mouse (DBA/1))
Assay: cell-based or functional assay

B1: CII 245-270 (peptide)
peptide: PTGPLGPKGQTGZLGIAGFKGZQGPK
160 U/ml: IL-2 U/ml, T-cell hybridoma 2qCII92.33, molar ratio 0:1 (no competitor; baseline in the row of CII 245-270 [s260, 261, 263]) | IL-2 U/ml, T-cell hybridoma 2qCII92.33, molar ratio 0:1 (no competitor; baseline in the row of CII 245-270 [s266, 267, 269]) | IL-2 U/ml, T-cell hybridoma qCII98.10, molar ratio 0:1 (no competitor; baseline in the row of CII 245-270 [s260, 261, 263]) | IL-2 U/ml, T-cell hybridoma qCII98.10, molar ratio 0:1 (no competitor; baseline in the row of CII 245-270 [s266, 267, 269])
640 U/ml: IL-2 U/ml, T-cell hybridoma qCII85.33, molar ratio 0:1 (no competitor; baseline in the row of CII 245-270 [s260, 261, 263]) | IL-2 U/ml, T-cell hybridoma qCII85.33, molar ratio 0:1 (no competitor; baseline in the row of CII 245-270 [s266, 267, 269])

From patent US6423315
